Positions count from the first letter of the chain named. In names and notes the source's numbering stands.
B1: human DJ-1 C106S, recombinant, tag-cleaved (natural protein)
chain: GSHMASKRALVILAKGAEEMETVIPVDVMRRAGIKVTVAGLAGKDPVQCSRDVVICPDASLEDAKKEGPYDVVVLPGGNLGAQNLSESAAVKEILKEQENRKGLIAAISAGPTALLAHEIGFGSKVTTHPLAKDKMMNGGHYTYSENRVEKDGLILTSRGPGTSFEFALAIVEALNGKEVAAQVKAPLVLKD
B2: human DJ-1 E18Q, recombinant, tag-cleaved (natural protein)
chain: B1 chain with E21Q, S109C
modifications: unlabelled preparation fully reduced; the 15N-labelled preparation of the NMR experiment 43% oxidised (Cys106-SO2-)
B3: human DJ-1 E18D, recombinant, tag-cleaved (natural protein)
chain: B1 chain with E21D, S109C
modifications: uniformly 15N-labelled in the NMR experiment; fully reduced

What was measured:
cross-linking = target: the molecule itself; experiment: cross-linking
AUC = target: the molecule itself; experiment: AUC

Row | Protein | binding result (cross-linking) | stoichiometry N (AUC)
1 | B1 | binds | –
2 | B2 | – | 2
3 | B3 | – | 2
